Measurements: paper PMC2655680 (Nucleic Acids Research, 2009)
Non-standard residues stand in square brackets, D forms with d. No end group written: not given here. pT = C[C@@H](OP(=O)(O)O)[C@H](N)C(=O)O; pS = N[C@@H](COP(=O)(O)O)C(=O)O

Molecular target: full-length human PNK (human, UniProt Q96T60 1-521)
Experiment: ITC

stoichiometry N	Binder
0.49	YAG[pS][pT]DEN[pT]D[pS]E [XRCC1 peptide YAGpSpTDENpTDpSE, phosphorylated on Ser518, Thr519, Thr523 and Ser525]
0.61	YAG[pS][pT]DENTDSE [XRCC1 peptide YAGpSpTDENTDSE, phosphorylated on Ser518 and Thr519]
